# Measurements published in publication PMC3546355.
# Target: Cry1Aa toxin-binding region of BtR175 (BtR175-TBR) (Bombyx mori) (UniProt Q9XY09)
# Experiment: SPR
Substance,koff [s⁻¹],Kd [nM],kon [M⁻¹ s⁻¹]
Cry1Aa loop 3 mutant H^439MPR^442 (from UniProt P0A366 1-1176) (ligand),0.00105,–,–
Cry1Aa loop 3 mutant Q^439PRG^442 (from UniProt P0A366 1-1176) (ligand),0.00162,–,–
Cry1Aa loop mutant A^310QMA^313 (from UniProt P0A366 1-1176) (ligand),–,16,–
Cry1Aa loop mutant D^439TGN^442 (from UniProt P0A366 1-1176) (ligand),0.00162,13.5,–
Cry1Aa loop mutant E^439PPA^442 (from UniProt P0A366 1-1176) (ligand),–,11.6,121000
Cry1Aa loop mutant G^435LVG^438 (from UniProt P0A366 1-1176) (ligand),0.00559,13.5,–
Cry1Aa loop mutant I^443VPV^446 (from UniProt P0A366 1-1176) (ligand),0.00316,19.9,158000
Cry1Aa loop mutant L^367PRP^370 (from UniProt P0A366 1-1176) (ligand),–,13.3,–
Cry1Aa loop mutant P^367RRP^370 (from UniProt P0A366 1-1176) (ligand),–,12.1,–
Cry1Aa loop mutant S^371APN^374 (from UniProt P0A366 1-1176) (ligand),–,13.3,–
Cry1Aa loop mutant S^435VVG^438 (from UniProt P0A366 1-1176) (ligand),0.00379,19.9,–
Cry1Aa loop mutant T^439LRT^442 (from UniProt P0A366 1-1176) (ligand),0.00158,10.5,151000
Cry1Aa loop mutant V^443ELL^446 (from UniProt P0A366 1-1176) (ligand),0.00272,20.4,133000
